Laboratory results: patent US20230348564A1, “ANTI-CANCER PROTEINS” (UNICHEM LABORATORIES LTD, priority 2020, published 2023)

Tests used:
PI3K/AKT/FOXO3 = experiment: SelectScreen Cell-based Pathway Profiling (GeneBLAzer bla reporter); set-up: species or system Human; settings: 0.5 μg/mL-50 μg/mL
Procedure: (§1) The mechanism of action of the recombinant lectin having the amino acid sequence of SEQ ID NO.2 is studied by determining its effect on the modulation of key signaling pathways involved in the pathogenesis of cancer. The study was performed using SelectScreen® Cell-based Pathway Profiling Services at Life Technologies, USA. Modulatory effect of Lectin having the amino acid sequence of SEQ ID NO. 2 on various cell signaling pathways was investigated in cell lines overexpressing specific markers using GeneBLAzer Beta-lactamase (bla) Reporter Technology and Tango platforms. The cell lines tested were MDA-MB-231 (Human Breast cancer), KB (Human Cervical cancer), PA-1 (Human ovarian cancer), PANC-1 (Human pancreatic cancer), HT-29 (Human colorectal cancer), T-24 (Human Bladder cancer)
(§2) 10 mg of recombinant lectin having the amino acid sequence of SEQ ID NO.2 was dissolved in 200 μL of TBS buffer (25 mM, pH 8.0) to obtain stock solution of 50 mg/mL. The stock solutions were diluted in Serum Free Medium (STM) to achieve final concentrations in cells ranging from 0.00158 μg/mL-50 μg/mL. Cells (32 μL) were diluted in Assay Media to appropriate cell density and were added to the assay plate. Cells were incubated at 37° C./5% CO2 for 24 h. 40 nL of 1000×sample and 4 μL of assay medium was added to the cells in the assay plate and incubated for 30 minutes at 37° C./5% CO2 in a humidified incubator. Then, 4 μL of the 10×EC80 concentration of activator was added to all wells containing sample to bring the final assay volume to 40 μL. The assay plate was incubated for 16 hours at 37° C./5% CO2 in a humidified incubator. Further, 8 μL of the Substrate Loading Solution (LiveBLAzer™—FRET B/G) was added to the assay plate. The assay plate was incubated for 2 hours at room temperature, in the dark. The assay plate was read on a fluorescence plate reader (Tecan Safire2). Fluorescence emission values at 460 nm and 530 nm were obtained using a standard florescence plate reader and % modulation was determined.
(§3) % Modulation=[(A−B)/A]*100
(§4) Where, A=Fluorescence reading in Control (untreated cells) B=Fluorescence reading in TI treated cells

NF-KB = experiment: as above; set-up: species or system Human; settings: 0.5 μg/mL-50 μg/mL
Procedure: as §1, §2, §3, §4

PKC/Ca2+ = experiment: as above; set-up: species or system Human
Procedure: as §1, §2, §3, §4

TNF-alpha/JNK = experiment: as above; set-up: species or system Human; settings: 0.5 μg/mL-50 μg/mL
Procedure: as §1, §2, §3, §4

MAPK/EGFR/Ras/Raf = experiment: as above; set-up: species or system Human; settings: 0.158 μg/mL-50 μg/mL
Procedure: as §1, §2, §3, §4

IL-4/STAT6 = experiment: as above; set-up: species or system Human; settings: 0.0158 μg/mL-0.5 μg/mL
Procedure: as §1, §2, §3, §4

ADBR1 = experiment: as above; set-up: species or system Human; settings: 0.158 μg/mL-50 μg/mL
Procedure: as §1, §2, §3, §4

CCR5 = experiment: as above; set-up: species or system Human; settings: 0.058 μg/mL-50 μg/mL
Procedure: as §1, §2, §3, §4

Glioblastoma (U251MG) = experiment: cytotoxicity in Brain Tumor Cell lines by MTT assay; settings: 72 h
Neuroblastoma (SH-SY5Y) = experiment: cytotoxicity in Brain Tumor Cell lines by MTT assay; format: cell-based, Human; settings: 72 h
Procedure: (§5) The SEQ ID NO. […] Untreated cells were used as control. […] Cells were incubated for 3 h at 37° C.

Glioblastoma (LN-18) = experiment: as above; format: cell-based, Human; settings: 72 h
Procedure: as §5

[1] = test system: VEGF release in MDA-MB-231 cells; experiment: VEGF secretion in cancer cells (Human VEGF ELISA); format: cell-based; settings: 24 h
Procedure: (§6) The cell lines were maintained in DMEM+10% […] (heat inactivated) at 37° C. with 5% CO2, and 95% humidity. Cells were counted and plated in 6-well plates for 24 h at a density of 0.5×10^6 cells/well. The cells were incubated overnight under growth conditions as described above so as to allow cell recovery and exponential growth. Cells were treated with each test item at different concentrations for 24h in serum free media. Doxorubicin was used as positive control. Secreted levels of VEGF were determined in supernatants after 24 hours using Human VEGF ELISA kit (R&D systems) as per manufacturer's protocol. Change in VEGF levels corresponding to each treatment was calculated using the following formula: […]

[2] = test system: VEGF release in PANC-1 cells; experiment: VEGF secretion in cancer cells (Human VEGF ELISA); format: cell-based; settings: 24 h
Procedure: as §6

B1: SEQ ID NO. 2: recombinant lectin; variant of the S. rolfsii lectin amino acid sequence (reported as Rec-2 in WO 2010/095143) (protein)
chain: TYKITVRVYQTNPDAFFHPVEKTVWKYANGGTWTITDDQHVLTMGGSGTSGTLRFHADNGESFTATFGVHNYKRWCDIVTNLAADETGMVINQQYYSQKNREEARERQLSNYQVKNAKGRNFQIVYTEAEGNDLHANLIIG
modifications: In vitro synthesis
With B1 the “Effect (wrt control), inhibition” value (PI3K/AKT/FOXO3) was 2%-73% inhibition, the “Effect (wrt control), inhibition” value (PI3K/AKT/FOXO3; listed as recombinant lectin) was 2% to 73% and the “Effect (wrt control), inhibition” value (NF-KB) was 3%-13% inhibition. The “Effect (wrt control), inhibition” value (NF-KB; listed as recombinant lectin) was 3% to 13%, the effective inhibition (PKC/Ca2+; 0.00158 μg/mL to 0.5 μg/mL) was 5% to 19% and the “Effect (wrt control), inhibition” value (PKC/Ca2+; 0.00158 μg/mL-0.158 μg/mL) was 5%-19% inhibition. The “Effect (wrt control), inhibition” value (TNF-alpha/JNK) was 12%-45% inhibition, the “Effect (wrt control), inhibition” value (TNF-alpha/JNK; listed as recombinant lectin) was 12% to 45% and the “Effect (wrt control), inhibition” value (MAPK/EGFR/Ras/Raf) was 2%-48% inhibition. For the same molecule, the “Effect (wrt control), inhibition” value (MAPK/EGFR/Ras/Raf; listed as recombinant lectin) was 2% to 48%, the “Effect (wrt control), inhibition” value (IL-4/STAT6) was 16%-28% inhibition and the “Effect (wrt control), inhibition” value (IL-4/STAT6; listed as recombinant lectin) was 16% to 28%. The “Effect (wrt control), inhibition” value (ADBR1) was 26%-49% inhibition, the “Effect (wrt control), inhibition” value (ADBR1; listed as recombinant lectin) was 26% to 49% and the “Effect (wrt control), inhibition” value (CCR5) was 21%-70% inhibition. The “Effect (wrt control), inhibition” value (CCR5; listed as recombinant lectin) was 21%-70%, the “IC50 Value” (Glioblastoma (U251MG)) was 11.05 µg/mL and the “% Cytotoxicity” value (MDA-MB-231) was 60.9%. For the same molecule, the “% of cytotoxicity” value (Neuroblastoma (SH-SY5Y); 2.5 μg/mL-100 μg/mL) was 10.3%-46.9%, the “IC50 Value” (Neuroblastoma (SH-SY5Y)) was greater than 100 µg/mL and the “% of cytotoxicity” value (Glioblastoma (LN-18); 2.5 μg/mL-100 μg/mL) was 39.6%-75.3%. For the same molecule, the “IC50 Value” (Glioblastoma (LN-18)) was 4.35 µg/mL, the “Average absorbance at 450 nM” value ([1]; 2.5 μg/mL) was 0.970 and the “Percentage decrease in VEGF levels” value ([1]; 2.5 μg/mL) was −25.0%. The “VEGF level” value ([1]; 2.5 μg/mL) was 579.3 pg/mL, the “Average absorbance at 450 nM” value ([1]; 5 μg/mL) was 0.763 and the “Percentage decrease in VEGF levels” value ([1]; 5 μg/mL) was 4.8%. The “VEGF level” value ([1]; 5 μg/mL) was 441.0 pg/mL, the “Average absorbance at 450 nM” value ([1]; 10 μg/mL) was 1.072 and the “Percentage decrease in VEGF levels” value ([1]; 10 μg/mL) was −39.8%. The “VEGF level” value ([1]; 10 μg/mL) was 647.5 pg/mL, the “Average absorbance at 450 nM” value ([1]; 20 μg/mL) was 1.552 and the “Percentage decrease in VEGF levels” value ([1]; 20 μg/mL) was −108.8%. For the same molecule, the “VEGF level” value ([1]; 20 μg/mL) was 967.3 pg/mL, the “Average absorbance at 450 nM” value ([1]; 80 μg/mL) was 2.222 and the “Percentage decrease in VEGF levels” value ([1]; 80 μg/mL) was −205.2%. For the same molecule, the “VEGF level” value ([1]; 80 μg/mL) was 1413.9 pg/mL, the “Average absorbance at 450 nM” value ([2]; 2.5 μg/mL) was 1.717 and the “Percentage decrease in VEGF levels” value ([2]; 2.5 μg/mL) was −5.5%. The “VEGF level” value ([2]; 2.5 μg/mL) was 1077.5 pg/mL, the “Average absorbance at 450 nM” value ([2]; 5 μg/mL) was 1.821 and the “Percentage decrease in VEGF levels” value ([2]; 5 μg/mL) was −12.3%. The “VEGF level” value ([2]; 5 μg/mL) was 1146.8 pg/mL, the “Average absorbance at 450 nM” value ([2]; 10 μg/mL) was 2.085 and the “Percentage decrease in VEGF levels” value ([2]; 10 μg/mL) was −29.5%. For the same molecule, the “VEGF level” value ([2]; 10 μg/mL) was 1322.6 pg/mL, the “Average absorbance at 450 nM” value ([2]; 20 μg/mL) was 2.202 and the “Percentage decrease in VEGF levels” value ([2]; 20 μg/mL) was −37.2%. The “VEGF level” value ([2]; 20 μg/mL) was 1400.6 pg/mL, the “Average absorbance at 450 nM” value ([2]; 80 μg/mL) was 2.006 and the “Percentage decrease in VEGF levels” value ([2]; 80 μg/mL) was −24.4%. The “VEGF level” value ([2]; 80 μg/mL) was 1269.9 pg/mL.
